Consider one substance from paper PMC8991989.

In general, Kd refers to the equilibrium constant for the complex coming apart. Low readings indicate a tighter complex, high ones a looser complex.

The test deals with Epidermal growth factor receptor (EGFR), labelled for MST (UniProt P00533). The test is described as follows: MST.

With “FIP-nha, a fungal immunomodulatory protein from Nectria haematococca (natural protein)”, the dissociation constant Kd amounted to 15.5 µM.
